Assay results as given in US20220233552A1 (CONSEJO SUPERIOR DE INVESTIGACIONES CIENT FICAS CSIC, published 2022).

T1: protein tyrosine phosphatase-1B (PTP1B) (human, UniProt P18031 1-435)
T1 construct: Endogenous PTP1B of the cell lines, detected by co-immunoprecipitation, Western blot and mass spectrometry; also called PTPB1
T1 sequence (looked up): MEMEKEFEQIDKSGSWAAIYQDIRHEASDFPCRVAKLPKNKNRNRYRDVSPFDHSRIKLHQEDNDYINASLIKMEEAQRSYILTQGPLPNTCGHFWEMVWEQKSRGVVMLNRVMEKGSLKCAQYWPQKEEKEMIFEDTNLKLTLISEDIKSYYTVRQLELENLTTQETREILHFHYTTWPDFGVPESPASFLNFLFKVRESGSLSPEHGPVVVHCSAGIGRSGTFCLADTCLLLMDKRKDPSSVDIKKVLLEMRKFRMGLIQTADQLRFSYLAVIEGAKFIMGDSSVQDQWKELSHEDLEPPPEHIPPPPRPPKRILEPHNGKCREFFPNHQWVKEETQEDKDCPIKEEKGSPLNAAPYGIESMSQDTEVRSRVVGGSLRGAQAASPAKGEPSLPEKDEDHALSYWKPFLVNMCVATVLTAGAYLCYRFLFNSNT


Key:
[1] = molecular target: T1, protein tyrosine phosphatase-1B (PTP1B); experiment: IL13Rα2 immunoprecipitation with mass spectrometry (U251 lysates) and reciprocal co-IP/Western blot in CRC, GBM and OC cell lines
Source text: (§1) FIG. 1. […] Protein position was tentatively assigned based on existing literature.
To characterize the protein interaction network of IL13Rα2, whole-cell lysates of the human GBM cell line U251 were immunoprecipitated and analyzed by mass spectrometry.

[2] = molecular target: T1, protein tyrosine phosphatase-1B (PTP1B); experiment: co-immunoprecipitation (IL13Rα2 IP, PTP1B Western blot) in RKO transfectants
Source text: as §1

Row | binding result [1] | binding result [2] | Binder
1 | binds |  | IL13Rα2 (wild type) (receptor, human, UniProt Q14627 27-380, looked up, whole, on cells; Used as endogenous protein in lysates of human CRC, GBM and OC cell lines and as transfected wild type in RKO cells; also called IL13Rα2 WT; wild-type IL13Rα2) DTEIKVNPPQDFEIVDPGYLGYLYLQWQPPLSLDHFKECTVEYELKYRNIGSETWKTIITKNLHYKDGFDLNKGIEAKIHTLLPWQCTNGSEVQSSWAETTYWISPQGIPETKVQDMDCVYYNWQYLLCSWKPGIGVLLDTNYNLFYWYEGLDHALQCVDYIKADGQNIGCRFPYLEASDYKDFYICVNGSSENKPIRSSYFTFQLQNIVKPLPPVYLTFTRESSCEIKLKWSIPLGPIPARCFDYEIEIREDDTTLVTATVENETYTLKTTNETRQLCFVVRSKVNIYCSDDGIWSEWSDKQCWEGEDLSKKTLLRFWLPFGFILILVIFVTGLLLRKPNTYPKMIPEFFCDT
2 |  | no binding | IL13Rα2 Tyr369Phe mutant (receptor, human, UniProt Q14627 27-380, looked up, whole, on cells; immunoprecipitated from lysates; also called Y369F mutated form; mutant Tyr369Phe) DTEIKVNPPQDFEIVDPGYLGYLYLQWQPPLSLDHFKECTVEYELKYRNIGSETWKTIITKNLHYKDGFDLNKGIEAKIHTLLPWQCTNGSEVQSSWAETTYWISPQGIPETKVQDMDCVYYNWQYLLCSWKPGIGVLLDTNYNLFYWYEGLDHALQCVDYIKADGQNIGCRFPYLEASDYKDFYICVNGSSENKPIRSSYFTFQLQNIVKPLPPVYLTFTRESSCEIKLKWSIPLGPIPARCFDYEIEIREDDTTLVTATVENETYTLKTTNETRQLCFVVRSKVNIYCSDDGIWSEWSDKQCWEGEDLSKKTLLRFWLPFGFILILVIFVTGLLLRKPNTFPKMIPEFFCDT
